This is an account of results in patent publication US20260000597A1 (priority 2018, published 2026).

The target in this assay is AchR (Homo sapiens, UniProt P02708). As to the kind of experiment: ELISA of screened peptide phages on AchR versus streptavidin (OD450). It counts as binding. As to conditions: absorbance at 450 nm. Summed up: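 Reported as the ratio of AchR to streptavidin OD450, with TMB read-out after HRP anti-M13 detection. Wells coated with 5 μg/ml target overnight at 4 °C and BSA-blocked, then incubated 1 h at 30 °C with helper-rescued phage from individual plaques.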
AchR, sequence (P02708 21-457): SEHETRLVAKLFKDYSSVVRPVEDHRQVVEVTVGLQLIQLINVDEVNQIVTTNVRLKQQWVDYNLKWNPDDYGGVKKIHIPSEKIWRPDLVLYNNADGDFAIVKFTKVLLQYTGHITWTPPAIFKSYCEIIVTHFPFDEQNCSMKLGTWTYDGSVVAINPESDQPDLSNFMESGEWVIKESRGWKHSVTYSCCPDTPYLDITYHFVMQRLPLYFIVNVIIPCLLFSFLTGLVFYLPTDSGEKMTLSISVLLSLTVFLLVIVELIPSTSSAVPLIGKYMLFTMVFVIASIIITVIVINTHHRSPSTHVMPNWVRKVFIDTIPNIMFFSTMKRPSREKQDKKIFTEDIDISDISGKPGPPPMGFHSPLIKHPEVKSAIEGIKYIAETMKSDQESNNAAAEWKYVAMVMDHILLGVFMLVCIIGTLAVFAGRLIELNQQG

The mark [1] stands for this setting: ELISA of selected 14-mer (L3) peptide phages on AchR, Spep-2 positive control.
[2] abbreviates: phage ELISA, 5 μg/ml AchR, 4th and 5th round biopanning phages.
Where [3] appears, read: ELISA of selected 11-mer (L2) peptide phages on AchR, Spep-2 positive control.

As to “L3-184 (DMDKVKKWVWRSFP; AchR binding peptide) [Peptide L3-184]”, the OD under setting [1] is 0.766.

The substance RARKLHNR [Peptide L1-103] had an OD under setting [2] of 0.55.

Substance “L2-197 (CPYRIRRGPGK; AchR binding peptide) [Peptide L2-197]” had an OD under setting [3] of 0.768.

The substance “L3-168 (MGLRARKYEDKTLH; AchR binding peptide) [Peptide L3-168]” registered an OD under setting [1] of 0.775.

Consider “L2-182 (HEQRPKKGQQK; AchR binding peptide) [Peptide L2-182]”, for which the OD under setting [3] is listed as 0.681.

Under setting [2], KRKKDWWR [Peptide L1-10] came in with an OD of 0.621.

Regarding “L3-13 (YCTRIRREGMKGSE; AchR binding peptide) [Peptide L3-13]”, the OD under setting [1] came to 0.862.

On to “L2-71 (PYLRSKRFPPR; AchR binding peptide) [Peptide L2-71]”, for which the OD under setting [3] amounted to 0.651.

For RHRKYVDK [Peptide L1-152], the OD under setting [2] is listed as 0.484.

With RFKRMVWR [Peptide L1-99], the OD under setting [2] is on record as 0.543.

The substance “L3-148 (MMARCRRIMCRSFN; AchR binding peptide) [Peptide L3-148]” showed an OD under setting [1] of 0.451.

Take “L2-52 (LPSRPKKPVPK; AchR binding peptide) [Peptide L2-52]”: the OD under setting [3] is given as 0.624.

“L2-61 (PTIRVRKSDDR; AchR binding peptide) [Peptide L2-61]” displayed an OD under setting [3] of 0.688.

“L2-69 (WCCKTKRAVMK; AchR binding peptide) [Peptide L2-69]” had an OD under setting [3] of 0.676.

Turning to “L3-17 (VGPKFRKNHRRQNR; AchR binding peptide) [Peptide L3-17]”, the OD under setting [1] came out at 0.812.

Regarding RIRRAHDR [Peptide L1-165], the OD under setting [2] was 0.644.

With “L2-57 (LEHKERKDDFR; AchR binding peptide) [Peptide L2-57]”, the OD under setting [3] is given as 0.795.

Take “L3-125 (MQEKCRRCVFKGNI; AchR binding peptide) [Peptide L3-125]”: the OD under setting [1] worked out at 0.629.

“L2-90 (TSVKKRKQRLR; AchR binding peptide) [Peptide L2-90]” showed an OD under setting [3] of 0.765.

For the substance “L2-198 (DIYKGKRTLVK; AchR binding peptide) [Peptide L2-198]”, under setting [3], the OD was 0.718.

“L3-48 (PHCRQKKFWIRCGT; AchR binding peptide) [Peptide L3-48]” had an OD under setting [1] of 0.622.

The substance RIRRHMYR [Peptide L1-83] came in with an OD under setting [2] of 0.621.

With “L3-131 (YTPKFRRIFWRIID; AchR binding peptide) [Peptide L3-131]”, the OD under setting [1] was determined as 0.655.

As for “L2-37 (TLWKVRKAYSR; AchR binding peptide) [Peptide L2-37]”, the OD under setting [3] came to 0.66.

The substance “L3-197 (QQIKYKRPTYRMVC; AchR binding peptide) [Peptide L3-197]” yielded an OD under setting [1] of 0.771.

“L2-183 (TCDRARKESFR; AchR binding peptide) [Peptide L2-183]” yielded an OD under setting [3] of 0.688.

Under setting [1], “L3-51 (NHHKTKRCSVRFNI; AchR binding peptide) [Peptide L3-51]” gave an OD of 0.754.

With “L2-4 (ECYRNRKAYCR; AchR binding peptide) [Peptide L2-4]”, the OD under setting [3] worked out at 0.757.

Consider “L3-12 (DPPKKRKSLLRRVS; AchR binding peptide) [Peptide L3-12]”, for which the OD under setting [1] was 0.882.

“L2-150 (EDVRVKRQTCR; AchR binding peptide) [Peptide L2-150]” displayed an OD under setting [3] of 0.579.

For KLKKFPVR [Peptide L1-4], under setting [2], the OD was 0.696.

“L3-22 (HSLKTRKSAFKSNT; AchR binding peptide) [Peptide L3-22]” came in with an OD under setting [1] of 0.83.

In the case of KTKRGSLK [Peptide L1-101], under setting [2], the OD was 0.599.

Regarding “L2-99 (CSLRARKEEWR; AchR binding peptide) [Peptide L2-99]”, under setting [3], the OD worked out at 0.52.

Under setting [3], “L2-122 (MGDRPRKWDSR; AchR binding peptide) [Peptide L2-122]” gave an OD of 0.558.

As for “L3-29 (CASKPRRTYLRAAN; AchR binding peptide) [Peptide L3-29]”, under setting [1], the OD is 0.789.

The substance KARRNSLK [Peptide L1-175] had an OD under setting [2] of 0.621.

Take “L3-50 (VFDKFRKTENRGVI; AchR binding peptide) [Peptide L3-50]”: the OD under setting [1] is 0.634.

Under setting [3], “L2-133 (DFSRDRRCLSK; AchR binding peptide) [Peptide L2-133]” had an OD of 0.526.

Under setting [1], “L3-111 (TWLRGRRWPDKQPQ; AchR binding peptide) [Peptide L3-111]” had an OD of 0.976.

“L2-92 (FVGRWKREYAK; AchR binding peptide) [Peptide L2-92]”: the OD under setting [3] was determined as 0.634.

For RPKRSPSK [Peptide L1-117], the OD under setting [2] is reported as 0.508.

The substance KSKRHHEK [Peptide L1-69] yielded an OD under setting [2] of 0.474.

“L2-64 (SPFRAKRQDVR; AchR binding peptide) [Peptide L2-64]” had an OD under setting [3] of 0.683.

For the substance KARRQEDK [Peptide L1-14], the OD under setting [2] was determined as 0.755.

“L2-149 (LPMKQRKCEFR; AchR binding peptide) [Peptide L2-149]” came in with an OD under setting [3] of 0.465.

Consider “L3-38 (TVVKSRKCSVRYNW; AchR binding peptide) [Peptide L3-38]”, for which the OD under setting [1] is reported as 0.669.

Under setting [1], “L3-138 (TNQRPRRETAKTIE; AchR binding peptide) [Peptide L3-138]” gave an OD of 0.576.

Turning to “L2-34 (VMDRDRKWWWR; AchR binding peptide) [Peptide L2-34]”, the OD under setting [3] was found to be 0.604.

With “L2-14 (GMWKVRKTVFR; AchR binding peptide) [Peptide L2-14]”, the OD under setting [3] amounted to 0.746.

With “L3-86 (SEVRPKKDHSRLFI; AchR binding peptide) [Peptide L3-86]”, the OD under setting [1] stood at 0.755.

“L3-11 (FMQKCKKWWDRAVF; AchR binding peptide) [Peptide L3-11]”: the OD under setting [1] turned out to be 0.8.

Substance “L2-192 (EHVKLKRLDFR; AchR binding peptide) [Peptide L2-192]” showed an OD under setting [3] of 0.685.

Take “L3-159 (QIAKLKRDQMKEAW; AchR binding peptide) [Peptide L3-159]”: the OD under setting [1] was 0.786.

Regarding RDRKIHDK [Peptide L1-23], the OD under setting [2] came out at 0.712.

Under setting [3], “L2-112 (CFFKMRRCNTK; AchR binding peptide) [Peptide L2-112]” had an OD of 0.646.

“L3-90 (LWNRYKKLLMRIFW; AchR binding peptide) [Peptide L3-90]” registered an OD under setting [1] of 0.818.

As for “L3-52 (GTFKWRKSGARQYL; AchR binding peptide) [Peptide L3-52]”, the OD under setting [1] was 0.757.

For the substance “L2-10 (TSQKVRKMEAK; AchR binding peptide) [Peptide L2-10]”, under setting [3], the OD is 0.803.

For the substance “L2-105 (IEMKPRKFGVK; AchR binding peptide) [Peptide L2-105]”, the OD under setting [3] is recorded as 0.488.

In turn, RSKKINNK [Peptide L1-71] showed an OD under setting [2] of 0.618.

As to “L2-40 (PEVKVRRHSMR; AchR binding peptide) [Peptide L2-40]”, the OD under setting [3] was determined as 0.685.

Consider RNKRDENK [Peptide L1-29], for which, under setting [2], the OD turned out to be 0.646.

For the substance “L3-41 (GWLKAKRFPSRPPT; AchR binding peptide) [Peptide L3-41]”, the OD under setting [1] was 0.81.

In turn, RHRRANFR [Peptide L1-147] had an OD under setting [2] of 0.415.

Consider “L3-82 (HMCRSKRVAWKNLI; AchR binding peptide) [Peptide L3-82]”, for which the OD under setting [1] is reported as 0.783.

“L2-128 (SPWRIRRQNIR; AchR binding peptide) [Peptide L2-128]” showed an OD under setting [3] of 0.516.

“L3-123 (PGERLKKEDHRASG; AchR binding peptide) [Peptide L3-123]” gave an OD under setting [1] of 0.654.

Under setting [2], RCKKNPEK [Peptide L1-66] had an OD of 0.605.

As to RHKKFIEK [Peptide L1-59], the OD under setting [2] worked out at 0.479.

The substance RQRRMTPR [Peptide L1-156] gave an OD under setting [2] of 0.589.

In turn, “L3-107 (DLSKVRRGHGKNDI; AchR binding peptide) [Peptide L3-107]” showed an OD under setting [1] of 0.658.

Take “L2-185 (FITRFRKMGEK; AchR binding peptide) [Peptide L2-185]”: the OD under setting [3] is on record as 0.742.

“L3-2 (SFYKERKCQFRSGL; AchR binding peptide) [Peptide L3-2]”: the OD under setting [1] stood at 0.841.

As for RCRKDTAR [Peptide L1-142], the OD under setting [2] came out at 0.469.

RMKKFHTR [Peptide L1-128] yielded an OD under setting [2] of 0.301.

With “L3-193 (AAYRARKIVEKSGW; AchR binding peptide) [Peptide L3-193]”, the OD under setting [1] is recorded as 0.755.

Under setting [3], “L2-81 (TMWRQRKMSCK; AchR binding peptide) [Peptide L2-81]” yielded an OD of 0.705.

The substance “L2-193 (PALRMRRWCQK; AchR binding peptide) [Peptide L2-193]” displayed an OD under setting [3] of 0.705.

As for “L2-91 (PIDKFKRGMVR; AchR binding peptide) [Peptide L2-91]”, the OD under setting [3] stood at 0.517.

Turning to KIRRVTNK [Peptide L1-162], under setting [2], the OD stood at 0.668.

Substance “L2-53 (PAWRCKRCQPK; AchR binding peptide) [Peptide L2-53]” gave an OD under setting [3] of 0.614.

The substance “L2-164 (VPTKMKKYETK; AchR binding peptide) [Peptide L2-164]” came in with an OD under setting [3] of 0.733.

As to “L2-86 (SQWKIRKRLIR; AchR binding peptide) [Peptide L2-86]”, the OD under setting [3] was found to be 0.701.
